Experimental data: the supplement of paper PMC7125110
± gives the standard error. For some assays here: This sample holds only a part of the variants without activity.

B1: glmS ribozyme (parent)
chain: AUAAAAGCGCCAGAACUACAGAAAUGUAGUUGACGAGGAGGAGGUUUAUCGAAUUUUCGGCGGAUGCCUCCAAA

Experiments:
Details in all cases: with glucosamine-6-phosphate
glucosamine-6-phosphate [1] = variants of: B1; test: kcat; higher = faster cleavage; RNA array
Method in brief: (§1)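 Tiles bearing barcoded ribozyme variants, transcribed in situ by E. coli RNA polymerase on sequenced MiSeq chips, were imaged over ~14 h at 37 °C using a hybridised Cy3 probe. Glucosamine-6-phosphate was supplied at 40 μM to 10 mM in HEPES/KCl/Mg(OAc)2 buffer. kobs came from one- or two-exponential decay fits to normalised per-tile medians, and weighted Michaelis–Menten fits then provided kcat and KM.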

glucosamine-6-phosphate [2] = variants of: B1; test: self-cleavage kobs at 40 uM GlcN6P; higher = faster cleavage; RNA array
Method in brief: as §1

glucosamine-6-phosphate [3] = variants of: B1; test: self-cleavage kobs at 160 uM GlcN6P; higher = faster cleavage; RNA array
Method in brief: as §1

glucosamine-6-phosphate [4] = variants of: B1; test: self-cleavage kobs at 640 uM GlcN6P; higher = faster cleavage; RNA array
Method in brief: as §1

glucosamine-6-phosphate [5] = variants of: B1; test: self-cleavage kobs at 2500 uM GlcN6P; higher = faster cleavage; RNA array
Method in brief: as §1

glucosamine-6-phosphate [6] = variants of: B1; test: self-cleavage kobs at 10000 uM GlcN6P; higher = faster cleavage; RNA array
Method in brief: as §1

glucosamine-6-phosphate [7] = variants of: B1; test: KM; higher = weaker cofactor use; RNA array
Method in brief: as §1

Variant | kcat (glucosamine-6-phosphate [1]) | self-cleavage kobs at 40 uM GlcN6P (glucosamine-6-phosphate [2]) | self-cleavage kobs at 160 uM GlcN6P (glucosamine-6-phosphate [3]) | self-cleavage kobs at 640 uM GlcN6P (glucosamine-6-phosphate [4]) | self-cleavage kobs at 2500 uM GlcN6P (glucosamine-6-phosphate [5]) | self-cleavage kobs at 10000 uM GlcN6P (glucosamine-6-phosphate [6]) | KM (glucosamine-6-phosphate [7])
A14C U45A | 0.00955 ± 0.0035 s⁻¹ | 0.000245 ± 3.9e-05 s⁻¹ | 0.000909 ± 0.00039 s⁻¹ | 0.00207 ± 0.00049 s⁻¹ | 0.00469 ± 0.00097 s⁻¹ | 0.0131 ± 0.0028 s⁻¹ | 
A14G A39U | 0.0511 ± 0.013 s⁻¹ | 0.00167 ± 0.00051 s⁻¹ | 0.00416 ± 0.0013 s⁻¹ | 0.0183 ± 0.0062 s⁻¹ | 0.0365 ± 0.014 s⁻¹ | 0.0395 ± 0.019 s⁻¹ | 1450 ± 480 µM
A14G A15C | 0.0193 ± 0.0062 s⁻¹ | 0.00141 ± 0.00023 s⁻¹ | 0.00312 ± 0.00073 s⁻¹ | 0.0155 ± 0.0029 s⁻¹ | 0.012 ± 0.0039 s⁻¹ | 0.0199 ± 0.0053 s⁻¹ | 584 ± 270 µM
A14G U56A | 0.121 ± 0.022 s⁻¹ | 0.00249 ± 0.00036 s⁻¹ | 0.00984 ± 0.0021 s⁻¹ | 0.0275 ± 0.0058 s⁻¹ | 0.0642 ± 0.024 s⁻¹ | 0.126 ± 0.053 s⁻¹ | 1930 ± 400 µM
A14G C71U | 0.133 ± 0.062 s⁻¹ | 0.0019 ± 0.00017 s⁻¹ | 0.00542 ± 0.00067 s⁻¹ | 0.0171 ± 0.0027 s⁻¹ | 0.0711 ± 0.027 s⁻¹ | 0.112 ± 0.022 s⁻¹ | 
A14U C16A | 0.000551 ± 6.3e-05 s⁻¹ |  | 5.14e-05 ± 1.1e-05 s⁻¹ | 0.000126 ± 1.9e-05 s⁻¹ | 0.000363 ± 4.8e-05 s⁻¹ | 0.000451 ± 5.1e-05 s⁻¹ | 1840 ± 400 µM
A14U A36C C50U | 1.43e-05 ± 5.6e-06 s⁻¹ |  |  |  |  |  | 
A14U A64U G66C | 1.84e-05 ± 4.5e-06 s⁻¹ |  |  |  |  |  | 
A14G C68A U69G | 0.000118 ± 2.9e-05 s⁻¹ |  |  | 0.000112 ± 2.8e-05 s⁻¹ | 9.76e-05 ± 1.8e-05 s⁻¹ |  | 
A14G A36U | 1.56e-05 ± 2.2e-07 s⁻¹ | < 1e-05 s⁻¹ | < 1e-05 s⁻¹ |  |  |  | 
A14G U31G | 0.00752 ± 0.0003 s⁻¹ |  | 0.000539 ± 9.8e-05 s⁻¹ | 0.00175 ± 0.00031 s⁻¹ | 0.0039 ± 0.00067 s⁻¹ | 0.00635 ± 0.00094 s⁻¹ | 2120 ± 140 µM
A14U A39U A52G | 0.00264 ± 0.00045 s⁻¹ |  |  |  | 5.72e-05 ± 1.2e-05 s⁻¹ | 0.000214 ± 3.7e-05 s⁻¹ | 
A14U C67G | 0.000352 ± 8e-06 s⁻¹ |  | 3.01e-05 ± 6.5e-06 s⁻¹ | 9.71e-05 ± 6.9e-06 s⁻¹ | 0.000215 ± 1.7e-05 s⁻¹ | 0.000296 ± 2.9e-05 s⁻¹ | 1670 ± 68 µM
A14U C67U | 0.00362 ± 0.00099 s⁻¹ | 6.23e-05 ± 7e-06 s⁻¹ | 0.000181 ± 2e-05 s⁻¹ | 0.000591 ± 7.1e-05 s⁻¹ | 0.00164 ± 0.00034 s⁻¹ | 0.0031 ± 0.00053 s⁻¹ | 2860 ± 930 µM
A14G G40U | 0.00991 ± 0.0013 s⁻¹ | 0.000302 ± 4.1e-05 s⁻¹ | 0.00117 ± 0.00023 s⁻¹ | 0.00267 ± 0.00043 s⁻¹ | 0.00713 ± 0.0011 s⁻¹ | 0.00879 ± 0.0013 s⁻¹ | 1350 ± 250 µM
A14U A36U | < 1e-05 s⁻¹ |  | < 1e-05 s⁻¹ |  | < 1e-05 s⁻¹ | < 1e-05 s⁻¹ | 
